experiment: soluble on expression in E. coli; label from the status in PepcDB or PDB records

Row | Sequence | soluble on expression in E. coli
1 | MERGPLIFSASIGNGHNQAAKALQVEFQNKGYQPEIIDTFYSLSPALHKFMLTSYVNLLKVGPRIWQKIYFQAEKYPLFLFLDQFATFFVESLHATVKSNRCSFLVSTHPFVTAFLVRLKSKKQLNLPLYTVITDFVLHPAYLRPEIDGYFTSDPNFTDFAKLNNVSDDRFFPTGIPIPNLESIDQPKWKVRNDLGLDPQRKVLIIAGGGIGLTNYAQVIRALECLPEPIQLLCMIGHNYQVKEKISRIKSKHELKVIEFTDKFLLYLKASDAILSKAGGLTMAESLVCETPIIIHQPVPGHEEHNAKFLIDAGAALRVKGSKEIPTTIKRVLYEEACFGPMIENARKLKKPNAANEIVEQMLLLVKEQQHAFRLEHHHHHH | soluble
2 | MERKSPSGKKFRSKPQLARYLGGSMDLSTFDFRTGKMLMSKMNKSRQRVRYDSSNQVKGKPDLNTALPVRQTASIFKQPVTKITNHPSNKVKSDPQKAVDQPRQLFWEKKLSGLNAFDIAEELVKTMDLPKGLQGVGPGCTDETLLSAIASALHTSTMPITGQLSAAVEKNPGVWLNTTQPLCKAFMVTDEDIRKQEELVQQVRKRLEEALMADMLAHVEELARDGEAPLDKACAEDDDEEDEEEEEEEPDPDPEMEHV | soluble
3 | MERRSVQKKELLSTPVVPIDIKAFDAGPILEAMGKTAFQARNLHRAAEIYLRMLEDDCAVILTLAGSLVSAGQGLIVHDLIRKGLVDVIVATGANIVDQDFFEALGHRHYQGDPRADDEALRRLWIDRIYDTYIDEEELRHTDYTVAEIADGLEPRPYSSREFIWQMGRYLAERGLGEKRIVRRAYEKGVPIFVTAFSDSSAGFGLVYHQVKRPEAHVTIDSVADFRELTEIKLKAGTTGLVMLGGGVPKNFAQDIVVAAEVLGHRVEMHKYAIQITVADERDGGLSGSTLSEAQSWGKVDARLSQMVFAEATLAFPLLASYVWHRAPARAKRRYAELFREKAPA | soluble
4 | MERVKSHFHNRKKVLLARIKDELKTIPSSNQMSTDEKMEELVRRRICIGEYDEQLARVCLDIEDEEKGRTEQFGNEQIQQPMTNLFTETSHQSLLSQLLTSSASQSKSEIPISMSSPMESASSKDSEPQAVISLPTLGATRAPLLSKLLSDPSTSKENGFLLRKEPVRLARAPSAIRNPNVSNYDRKRRAASPYEKSNRLSVLPSPQNQYLSHLIVDVSSPQELKRLLSVLIDHGFSRFQHIGSSDMVASSIRTGIPRAPRLDTVEYSNYEHEPETDEISRDGTPFWSTPIPPTNKELPVSPVSQLDMTNSIKSRVERVDVEVKLEPCNDEDDEFSEEVDEQTAELEEQLATEAIRTGLALFGKVSPSPKRMKSCGSSGSVCGDVVTAICEICGIGIRLNSGGSKWNFFEHVMMKHSTHKPFKCSQCPYQAVRKVRVKQHGQSQHNSEHEPVNMITPEVRKEWLDTMAKCFPNHQYGKEAKI | not soluble
5 | MERYVWARFFWQQARDKRGVPRRHVCDTARNNNRRPETGTAFTALCSTTVTPHPDDDDTVKGTCFAPACQVCTILLARAMNWNDGELGQLVQTFHWTHADIALLATALDITRSEARRLLTAWTDAAK | not soluble
6 | MESITQIYRIGYGPSSSHTIGPRRAAEMFLDRNPRATSFRVTLYGSLAATGKGHLTDAAILAVLEAKAPTEIVWKPEIFQNFHPNGMLFESFDKEGKQLDDWLIYSIGGGVLANEHFNEQ | not soluble
7 | MESKAKTTVTFHSGILTIGGTVIEVAYKDAHIFFDFGTEFRPELDLPDDHIETLINNRLVPELKDLYDPRLGYEYHGAEDKDYQHTAVFLSHAHLDHSRMINYLDPAVPLYTLKETKMILNSLNRKGDFLIPSPFEEKNFTREMIGLNKNDVIKVGEISVEIVPVDHDAYGASALLIRTPDHFITYTGDLRLHGHNREETLAFCEKAKHTELLMMEGVSISFPEREPDPAQIAVVSEEDLVQHLVRLELENPNRQITFNGYPANVERFAKIIEKSPRTVVLEANMAALLLEVFGIEVRYYYAESGKIPELNPALEIPYDTLLKDKTDYLWQVVNQFDNLQEGSLYIHSDAQPLGDFDPQYRVFLDLLAKKDITFVRLACSGHAIPEDLDKIIALIEPQVLVPIHTLKPEKLENPYGERILPERGEQIVL | soluble
8 | MESKREYDYILPGRAESYWLATVPEPSYPALKGDIRVDIAIIGGGIAGLTTAYLLKEAGFSSIAVIEAGRILRGVTGHTTAKVTSQHSLIYDRLLSKFGKRQAQQYAESNQAALEKIASIVASKKIDCDFVRKPSYVYAGSEDSTNKIQNEAQTARNLGLPASFEENLPLPFKTYGAVRFNNQAQFHPVKYLNALAEQIHEGGCHIFENTRALKIEGEEPVTITTDKGTIRAHKVVQAMHYPIHDRPGLFFQRLYQSRSYVLGVRIRDPFPDGMFINAEEPVRSLRSQSTDKGELILVSGEGHRTGEEEHEISRYQNLEKWVRSVYSVDSIDYRWSSQDAISIDHIPYIGRQTSGNDSIFLATGFKKWGMTMGTVAAMIIKDMIREKYNPWEEVYDPSRFKPVESAKTLLSQAVEATKGFVGDRILPTHKEASQIGPEEGAIVKIEGERVAAYRDRNGVLYTLNPSCRHLGCIVSWNDAEKTWDCPCHGSRYKATGEVIHSPAVYGLSEKKIRGQDKNNIHTLEHHHHHH | soluble
9 | MESPLGSDLARLVRIWRALIDHRLKPLELTQTHWVTLHNIHQLPPDQSQIQLAKAIGIEQPSLVRTLDQLEDKGLISRQTCASDRRAKRIKLTEKADALIAEMEEVIHKTRGEILAGISSEEIELLIKLIAKLEHNIMELHSHD | not soluble
10 | MESSKKMDSPGALQTNPPLKLHTDRSAGTPVFVPEQGGYKEKFVKTVEDKYKCEKCHLVLCSPKQTECGHRFCESCMAALLSSSSPKCTACQESIVKDKVFKDNCCKREILALQIYCRNESRGCAEQLTLGHLLVHLKNDCHFEELPCVRPDCKEKVLRKDLRDHVEKACKYREATCSHCKSQVPMIALQVSLLQNESVEKNKSIQSLHNQICSFEIEIERQKEMLRNNESKILHLQRVIDSQAEKLKELDKEIRPFRQNWEEADSMKSSVESLQNRVTELESVDKSAGQVARNTGLLESQLSRHDQMLSVHDIRLADMDLRFQVLETASYNGVLIWKIRDYNRRKQEAVMGKTLSLYSQPFYTGYFGYKMCARVYLNGDGMGKGTHLSLFFVIMRGEYDALLPWPFKQKVTLMLMDQGSSRRHLGDAFKPDPNSSSFKKPTGEMNIASGCPVFVAQTVLENGTYIKDDTIFIKVIVDTSDLPDP | soluble
11 | MESSSTASQSGSRREATRQKLYEAAVTLIAEQGFSATTVDEIAERAGVAKGTVYYNFASKSVLFEELLRHGVGLLTASLRQAAERTAREGRGRVDALDAMIRAGLVFIDRYPAFTQLYVAELWRTNRAWQSTLLVVRQEAVAVVEGVLREGVASGEFSEDIDVPLTAAALVGMVLVAALDWKAFQPERSLDDVHAALSRLLQGRVSGRG | not soluble
12 | METAMSKGVITITDAEFESEVLKAEQPVLVYFWASWCGPCQLMSPLINLAANTYSDRLKVVKLEIDPNPTTVKKYKVEGVPALRLVKGEQILDSTEGVISKDKLLSFLDTHLNNN | soluble
13 | METGMVTVVNSNNFDVPRIYPPSSKSTSIHLTGFPTFYSKDHEYLLPVNLWFNYLVNIRKAVDITASVRALKRYWQFLETNNYSWDNFPANDYLKPTYRFRNDDLLKAARSGEIAFSTASMYILHVIKFYEWAAHERFITFTEENKPFNYQIVHIANSGMMSHNNPRFTVRSTDLRIRKPARNEQQKLNPLSQQELLFFADCLKECSDEFIIHQLLQIQSGLRVEEACTFPFSIVEMPNPHIHRYEVEIGIHNGVHTKFNKTRKVEIPNQLMRKMYDYSVSERRLKREKKTDGVNKTLLLNNLGNPLCSNNIQQHFRRLRHHIQNKHNIVFSHRTHDLRATYGTYRLDSLLDHLPVGDALALIMGWMGHKDDKTTWKYLRYLRKEKANQNAIVMLDQILEEAML | not soluble
14 | MEVEKEFITDEAKELLSKDKLIQQAYNEVKTSICSPIWPATSKTFTINNTEKNCNGVVPIKELCYTLLEDTYNWYREKPLDILKLEKKKGGPIDVYKEFIENSELKRVGMEFETGNISSAHRSMNKLLLGLKHGEIDLAIILMPIKQLAYYLTDRVTNFEELEPYFELTEGQPFIFIGFNAEAYNSNVPLIPKGSDGMSKRSIKKWKDKVENK | soluble
15 | MEVEKYDLTLDFDIQKRTFNGTETITADAGDIVLDAVGLQINWMKVNGRDTAFTYDGQTVRAPGDSQPQKIEISFAGKVSDSLSGIYYAGRENGMITTHFEATDARRMFPCVDHPAYKAVFAITVVIDKDYDAISNMPPKRIEVSERKVVEFQDTPRMSTYLLYVGIGKFRYEYEKYRDIDLILASLKDIRSKYPLDMARKSVEFYENYFGIPYALPKMHLISVPEFGAGAMENWGAITFREIYMDIAENSAVTVKRNSANVIAHEIAHQWFGDLVTMKWWNDLWLNESFATFMSYKTMDTLFPEWSFWGDFFVSRTSGALRSDSLKNTHPIEVDVRDPDEISQIFDEISYGKGASILRMIEDYAGYEEFRKGISKYLNDHKFGNAEGSDLWTAIEDVSGKPVKRVMEYWIKNPGYPVIKLKRNGRKITMYQTRFLLNGEEEGRWPVPVNIKKKDGVERILLEDEASIEADGLIKINADSAGFYRVLYDDATFSDVMGHYRDLSPLDRIGLVDDLFAFLLSGHIDPETYRQRIRNFFDDEDHNVITAIVGQMEYLRMLTHAFDDDARAFCRSRMQFLTGKQDENLKIALGRVSRLYVMVDESYAEEMSKLFKDFDSAEPEMRSSIATAYALVTGDLKGLLEKFRSVDRDEDRVRIISAFGKLKSNTDLSTVYGMVEKTEIKKQDMISFFSSALETLPGREFIFANLDRIIRLVIRYFTGNRTASRTVEMMIPVIGLDHPDAEDIVRNIGSKNISMGLAKGIEMLAVNRKLVERIRQTAVK | soluble
16 | MEWFGIGAGTLRQGDRADFAVIDPTHLDESVDGYHEEAVPYYGGLRRMVNRNDATVVATGVGGTVVFRGGQFGGQFRLEHHHHHH | not soluble
17 | MEWILFDKDGTLIEFDRSWEKIGVRFVQSLLETFPVHNKEAALRQLGVIKESIDPKSVMGSGSLQQIIQAFNDVTGQDTTDWSKSTSQKLVDERIPEINWVEGVKEALIDLKAKGYQLGIVTSDTKKGVEQFLAHTNAISLFDLIISTEADAYEKPNPKVLSPLFEQYNVDPQKVAIVGDTANDMKTASNANLGMAIGVLTGIATKEELHEADIILNSAADILEALN | not soluble
18 | MEWKNDVLRFSGFDYGVSKIRMLNEELHSECDQLSKSNESTSLKDITEEPKDEKLESIIETAKNKESEKEENSHVFNDCEFDAMTERKIENFYFRNVEQAEKKMKHLTTLKSKWSEPWQTGEEIVAKVYLKPKNHENPWKDGTFQEKEAVEMQKNGKKHGRCIIS | not soluble
19 | MEYELLIREAEPKDAAELVAFLNRVSLETDFTSLDGDGILLTSEEMEIFLNKQASSDNQITLLAFLNGKIAGIVNITADQRKRVRHIGDLFIVIGKRYWNNGLGSLLLEEAIEWAQASGILRRLQLTVQTRNQAAVHLYQKHGFVIEGSQERGAYIEEGKFIDVYLMGKLIG | soluble
20 | MEYHSHTVVTERKVTLLEQGQASDLTDYVANEVRVALVYNGISHTVMLASPENLEEFAIGFTLSERIVSHVNEIKGVDLEFTPEGVLIQVEITQRCFMALKQLRRNMAGRTGCGLCGVAQLEEAVKPVIRVDSDARFNIDHLQFALEQVKDNQHHFKLTGATHAAMGLDLEGQIIAAYEDIGRHIALDKLIGGCSMRHAKRPVAVLLTSRASFEMVQKAASANIQILFAMSAVTSLALELAEKSNITLIGFCRNGRATLYTHGYRLLGLNRASLAKAIAAALEHHHHHH | not soluble

From the DeepSol protein solubility set
